# Reference: patent US20250011363A1, “OPTIMIZED SHORTENED PEPTIDE THAT BINDS TO ACETYLCHOLINE RECEPTOR, AND USE THEREOF” (SKINMED CO., LTD., priority 2021, published 2025)
# Biological target: acetylcholine receptor (Homo sapiens, UniProt P02708)
# Test: SPR binding affinity (RU) of optimized 5mer/6mer/7mer peptides, Examples 6-7
# Details: 6mer-1 Top sequence; SPR; peptides tested at 10 μM
# Outline: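 Single-concentration screen: 10 μM peptide, SPR detection, binding expressed as RU.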
# acetylcholine receptor, sequence (P02708 21-457): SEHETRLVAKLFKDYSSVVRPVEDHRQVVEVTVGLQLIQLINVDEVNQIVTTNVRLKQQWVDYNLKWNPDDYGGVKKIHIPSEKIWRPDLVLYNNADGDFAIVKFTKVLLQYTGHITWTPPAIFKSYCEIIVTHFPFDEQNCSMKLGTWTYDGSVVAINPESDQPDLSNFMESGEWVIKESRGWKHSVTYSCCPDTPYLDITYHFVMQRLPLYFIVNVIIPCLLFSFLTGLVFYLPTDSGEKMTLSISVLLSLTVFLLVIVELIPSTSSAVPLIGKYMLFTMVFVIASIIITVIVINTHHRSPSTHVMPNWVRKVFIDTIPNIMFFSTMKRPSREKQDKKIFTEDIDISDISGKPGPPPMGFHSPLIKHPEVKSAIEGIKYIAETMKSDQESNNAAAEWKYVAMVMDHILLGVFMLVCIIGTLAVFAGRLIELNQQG
row,Substance,Binding affinity [Ru]
1,6mer-1-393 (KRLYYK),148
2,6mer-1-219 (RRLFCR),121
3,6mer-1-372 (RKLRSK),145
4,6mer-1-355 (RKVFYR),148
5,6mer-1-360 (KRVFLK),148
6,6mer-1-344 (KKSQCR),125
7,6mer-1-277 (KKGLCR),141

# Same assay, conditions: 6mer-2 Top sequence; SPR; peptides tested at 10 μM
row,Substance,Binding affinity [Ru]
1,6mer-2-76 (RRQSRK),142
2,6mer-2-73 (RLYTKR),139
3,6mer-2-178 (KWLLRR),133
4,6mer-2-160 (RVRRKK),121
5,6mer-2-15 (KQVRKR),133
6,6mer-2-60 (RRLSKK),148
7,6mer-2-196 (KSQRKK),121
8,6mer-2-29 (RSQRKR),142

# Same assay, conditions: SPR, Resonance Units; 5mer Bottom sequence (bottom combinations); peptides tested at 10 μM
row,Substance,Binding affinity [Ru]
1,5mer-627 (KMSPK),30
2,5mer-626 (KICMR),12
3,5mer-715 (KCNGR),22
4,5mer-725 (RNADR),19
5,5mer-956 (KPTWK),19
6,5mer-1048 (KYDNK),12
7,5mer-808 (KFCIR),13
8,5mer-698 (KFDWK),12
9,5mer-675 (RKPGR),31
10,5mer-1109 (KCHPK),14
11,5mer-795 (RTKKR),20
12,5mer-743 (KYAFR),15
13,5mer-1022 (KIADK),29
14,5mer-943 (KDKGK),12
15,5mer-970 (KYMNR),33
16,5mer-609 (RKTMK),32
17,5mer-1018 (KFWAK),20
18,5mer-1042 (RCCAK),28

# Same assay, conditions: SPR, Resonance Units; peptides tested at 10 μM; 6mer-1 Bottom sequence
row,Substance,Binding affinity [Ru]
1,6mer-1-1051 (KKKSFK),43
2,6mer-1-1101 (RRECDK),37
3,6mer-1-1146 (KKMMPK),34
4,6mer-1-1067 (RRKHWK),38
5,6mer-1-1043 (KRAAHR),30
6,6mer-1-1030 (KKFCFR),30
7,6mer-1-1195 (KRDEDK),25
8,6mer-1-1000 (RKMSHR),28
9,6mer-1-1180 (KRPPPK),34
10,6mer-1-1170 (KKYNPK),25

# Same assay, conditions: SPR, Resonance Units; peptides tested at 10 μM; 6mer-1 Bottom sequence (Table 11)
row,Substance,Binding affinity [Ru]
1,6mer-1-772 (KRNCAK),12
2,6mer-1-673 (RRAMPK),16
3,6mer-1-677 (KKCCFR),22
4,6mer-1-657 (RRCTVR),17
5,6mer-1-749 (RKPHWR),33
6,6mer-1-746 (RKMSVK),24
7,6mer-1-614 (KKEEER),12
8,6mer-1-676 (KRCPWR),16
9,6mer-1-777 (RRHNHR),16

# Same assay, conditions: SPR, Resonance Units; peptides tested at 10 μM; 6mer-2 Bottom sequence
row,Substance,Binding affinity [Ru]
1,6mer-2-647 (KTEPKR),19
2,6mer-2-795 (RTHNKR),16
3,6mer-2-735 (KMNAKK),21
4,6mer-2-617 (RCNGRR),32
5,6mer-2-916 (KTTEKR),22
6,6mer-2-874 (KIHFRK),33
7,6mer-2-731 (KASWKK),19
8,6mer-2-945 (KKCERK),42
9,6mer-2-981 (RCEIRK),32
10,6mer-2-777 (KNDVRR),31
11,6mer-2-669 (KNMWRK),15
12,6mer-2-690 (KFTMRK),13
13,6mer-2-960 (RDCVKR),29
14,6mer-2-982 (RMHAKK),38
15,6mer-2-721 (RHSKKK),26
16,6mer-2-884 (KMTMKK),11
17,6mer-2-984 (KDMWKK),43

# Same assay, conditions: SPR, Resonance Units; peptides tested at 10 μM; 6mer-2 Top sequence
row,Substance,Binding affinity [Ru]
1,6mer-2-457 (RRVYKR),146
2,6mer-2-517 (KLRTKK),153
3,6mer-2-579 (RWQYRK),135
4,6mer-2-597 (KQFLRK),154
5,6mer-2-526 (RVLLRK),144
6,6mer-2-496 (RVRYRK),144
7,6mer-2-581 (RVQQKR),139
8,6mer-2-424 (RLYCKK),139

# Same assay, conditions: SPR, Resonance Units; peptides tested at 10 μM; 6mer-2 Top sequence (Table 12)
row,Substance,Binding affinity [Ru]
1,6mer-2-291 (RRYRKR),154
2,6mer-2-334 (KVILRR),146
3,6mer-2-339 (KQVYKK),151
4,6mer-2-225 (KRLLRR),145
5,6mer-2-349 (RRLSRR),137
6,6mer-2-300 (RWRLKK),153
7,6mer-2-249 (RGLRKR),136

# Same assay, conditions: SPR, peptides at 10 μM; 6mer-2 Bottom sequence
row,Substance,Binding affinity [Ru]
1,6mer-2-1070 (RPHVRR),31
2,6mer-2-1000 (KCHDKK),41
3,6mer-2-1160 (RITVKK),23
4,6mer-2-1031 (RAWERK),33
5,6mer-2-1148 (KEKGKR),34
6,6mer-2-1134 (KYENRK),30
7,6mer-2-1021 (RYTPKR),39
8,6mer-2-1104 (RYTKKR),38
9,6mer-2-1149 (KIDFRR),21
10,6mer-2-1069 (KHDMKK),36

# Same assay, conditions: SPR, peptides tested at 10 μM; 5mer Top sequence
row,Substance,Binding affinity [Ru]
1,5mer-161 (KWVTK),52
2,5mer-160 (RSIRR),53
3,5mer-397 (RRITK),52
4,5mer-324 (KSQRR),58
5,5mer-143 (KGQQR),64
6,5mer-164 (KSICK),54
7,5mer-435 (KLRQR),69
8,5mer-398 (KGQCR),71
9,5mer-54 (KWLQR),66
10,5mer-83 (KGFSR),64
11,5mer-404 (KGYLK),83
12,5mer-171 (KSIQR),55
13,5mer-439 (KRVTR),65
14,5mer-480 (RWYLR),75
15,5mer-474 (RQFLR),80
16,5mer-402 (RLRYR),86
17,5mer-370 (KWRRK),67

# Same assay, conditions: SPR, peptides tested at 10 μM; 5mer Top sequence (top combinations)
row,Substance,Binding affinity [Ru]
1,5mer-217 (KLQRR),72
2,5mer-287 (KRYRR),68
3,5mer-518 (RVYYR),87
4,5mer-234 (RQYCR),62
5,5mer-588 (RSFTR),60

# Same assay, conditions: SPR, peptides tested at 10 μM; 6mer-1 Bottom sequence (Table 11)
row,Substance,Binding affinity [Ru]
1,6mer-1-931 (KKNWPR),35
2,6mer-1-906 (KKINGK),30
3,6mer-1-979 (RRYWEK),42
4,6mer-1-972 (RRHTHK),43
5,6mer-1-876 (RKYWAR),19
6,6mer-1-920 (RRPAMR),40
7,6mer-1-928 (KRYCPK),30
8,6mer-1-991 (RKAHDK),25
9,6mer-1-964 (RKFKNK),42

# Same assay, conditions: SPR, peptides tested at 10 μM; 6mer-1 Top sequence
row,Substance,Binding affinity [Ru]
1,6mer-1-407 (KRLRTR),153
2,6mer-1-429 (RRQRRK),135
3,6mer-1-430 (KKQLQK),144
4,6mer-1-472 (KRQRCK),142
5,6mer-1-451 (RKVRLR),153

# Same assay, conditions: SPR, peptides tested at 10 μM; 6mer-1 Top sequence (top combinations)
row,Substance,Binding affinity [Ru]
1,6mer-1-49 (RRWQTR),149
2,6mer-1-128 (RKQFYR),126
3,6mer-1-143 (KRGVLR),145
4,6mer-1-187 (RKLFYK),139
5,6mer-1-198 (KRLFCR),148
6,6mer-1-12 (KKQICK),128
7,6mer-1-6 (RKSRCK),153
8,6mer-1-157 (KKSLLR),123
9,6mer-1-63 (KKWVSR),148
10,6mer-1-139 (KRRFLR),122
11,6mer-1-194 (RKWQRR),144

# Same assay, conditions: SPR; XRRQRR-6mer and RRQRRX-6mer
row,Substance,"Binding affinity, relative value to the RRQRR sequence"
1,3640 (RRQRRE) [compound 3640],37
2,3627 (RRQRRI) [compound 3627],133
3,3624 (RRQRRC) [compound 3624],126
4,3613 (YRRQRR) [compound 3613],130

# Same assay, conditions: SPR; peptides tested at 10 μM; 5mer Bottom sequence
row,Substance,Binding affinity [Ru]
1,5mer-1190 (RFSEK),32
2,5mer-1178 (RFDNR),22
3,5mer-1168 (RHHWR),31
4,5mer-865 (RMMER),21
5,5mer-891 (RKKMK),24
6,5mer-898 (RYCMR),20
